For 2 molecules, binding result and FRET efficiency results are on record in PMC10881398, “O-glycosylation of the transcription factor SPATULA promotes style development in Arabidopsis” (Nature Plants, 2024).

The target in data set [1] is T1, 6xHis-SPT (SPATULA) (Arabidopsis thaliana, UniProt Q9FUA4 1-373).
T1 sequence: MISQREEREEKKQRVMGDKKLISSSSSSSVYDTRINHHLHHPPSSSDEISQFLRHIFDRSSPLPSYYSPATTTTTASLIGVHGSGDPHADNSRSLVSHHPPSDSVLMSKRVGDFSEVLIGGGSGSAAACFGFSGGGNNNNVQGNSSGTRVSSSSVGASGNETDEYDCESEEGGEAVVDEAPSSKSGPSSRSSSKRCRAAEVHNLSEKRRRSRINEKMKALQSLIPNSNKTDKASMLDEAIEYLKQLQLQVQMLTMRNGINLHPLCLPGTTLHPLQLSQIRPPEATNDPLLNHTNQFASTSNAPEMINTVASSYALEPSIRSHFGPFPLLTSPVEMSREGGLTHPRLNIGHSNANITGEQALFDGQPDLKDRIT
Briefly: EMSA; legend: binding abolished; text: strongly abolished; EMSA: 150 ng DNA, '1x' buffer as printed 250 mM Tris-HCl pH 8.0, 500 mM NaCl, 25% glycerol, 10 mM DTT; on ice 20 min; 5% native acrylamide gel, 1x TBE, EB stain. Conditions: protein: recombinant; tags: 6xHis N-terminal (pRSFDuet); chain copies: 2; label: none (EB stain); blunt. (In EMSA bound probe runs differently from free probe, usually more slowly.)

Data set [2] deals with the molecule itself. Briefly: FRET or BRET; FRET–FLIM in nuclei of co-infiltrated N. benthamiana leaves; donor SPT–EGFP, acceptor RFP fusions; efficiency E = 1 − τDA/τD with SPT–EGFP;RFP–NLS as the donor-only reference; with or without co-expressed SEC–3xHA or SPY–3xHA. (In BRET a luciferase serves as donor, and the signal depends on an acceptor being close.)
The target of data set [3] is T2, HEC1–RFP (35S::HEC1–RFP) (Arabidopsis thaliana, UniProt Q9FHA7 1-241).
T2 construct: HECATE 1 (HEC1), bHLH transcription factor, Arabidopsis thaliana; the cloning of this construct is not described; the methods describe the FRET–FLIM constructs of SPT and IND only; also called HECATE 1; source: N. benthamiana leaves, Agrobacterium-infiltrated, in nuclei of leaf cells
T2 sequence (looked up): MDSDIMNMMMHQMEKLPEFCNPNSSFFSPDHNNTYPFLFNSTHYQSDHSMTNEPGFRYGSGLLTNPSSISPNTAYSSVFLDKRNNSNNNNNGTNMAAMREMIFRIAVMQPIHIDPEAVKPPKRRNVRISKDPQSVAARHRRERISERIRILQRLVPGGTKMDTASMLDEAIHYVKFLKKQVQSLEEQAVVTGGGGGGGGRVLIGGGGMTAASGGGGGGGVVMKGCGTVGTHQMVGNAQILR
The description is as above. Conditions: partners not purified.

Data set [4] has as its target T3, IND–RFP (35S::IND–RFP) (Arabidopsis thaliana, UniProt O81313 1-198).
T3 construct: INDEHISCENT (IND), bHLH transcription factor, Arabidopsis thaliana; also called INDEHISCENT; source: N. benthamiana leaves, Agrobacterium-infiltrated, in nuclei of leaf cells
T3 sequence (looked up): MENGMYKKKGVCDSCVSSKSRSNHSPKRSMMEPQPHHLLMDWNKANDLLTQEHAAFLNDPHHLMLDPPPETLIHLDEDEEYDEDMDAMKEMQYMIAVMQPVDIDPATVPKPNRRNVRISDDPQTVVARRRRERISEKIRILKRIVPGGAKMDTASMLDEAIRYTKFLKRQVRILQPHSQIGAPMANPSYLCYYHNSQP
Described as above. Conditions: partners not purified.

B1: 171-bp pPID G-box mutant (CACGTG to TGATGA) (dsDNA)
DNA 1: GCACCCCTATAATATGCCTAGAGGAAATAAGAAGAAAAAATAATGGGGAAAAAGAGAAGCTACTGCTACACTTTCAGGTGATGAACAACGTCTCATGATGATCATATATCTTACGTCATCAAGTCCTCTTTTTCTCTCTTTCACTTTTCTGTTTACCTCTCTCACGCGTTG
DNA 2: CAACGCGTGAGAGAGGTAAACAGAAAAGTGAAAGAGAGAAAAAGAGGACTTGATGACGTAAGATATATGATCATCATGAGACGTTGTTCATCACCTGAAAGTGTAGCAGTAGCTTCTCTTTTTCCCCATTATTTTTTCTTCTTATTTCCTCTAGGCATATTATAGGGGTGC
As to B1, in data set [1], the binding result was “no binding”.

B2: SPT–GFP (35S::SPT::GFP) (natural protein, Arabidopsis thaliana, UniProt Q9FUA4 1-373, looked up)
chain: T1 sequence
notes: SPATULA (SPT), Arabidopsis thaliana; in the self-association row the second copy carried RFP in place of EGFP (35S::SPT–RFP); also called SPT–EGFP; SPT–RFP (the second copy in the homodimer test); source: N. benthamiana leaves, Agrobacterium-infiltrated, in nuclei of leaf cells
With B2, the FRET efficiency in data set [2] stood at 5.7%; in data set [3] it was 7.4%; in data set [4], 9.6%.
